# From patent US20180244778A1 (THERAPIX BIOSCIENCES, published 2018)
# B1: OKT3-PE labeled conjugate (Abcam Cat. No. ab86882) (antibody, mouse IgG2a, V domains shown)
# VH: not shown
# VL: QIVLTQSPAIMSASPGEKVTMTCSASSSVSYMNWYQQKSGTSPKRWIYDTSKLASGVPAHFRGSGSGTSYSLTISGMEAEDAATYYCQQWSSNPFTFGSGTKLEINR
# modifications: PE (phycoerythrin) conjugate, site not stated
# notes: Bought PE conjugate of OKT3; also called labeled OKT3
# B2: VH2ala/Vκ2 humanized anti-CD3 mAb (antibody, V domains shown)
# VH: QVQLVQSGSELKKPGASVKVSCKASGYTFTRYTMHWVRQAPGKGLEWIGYINPSRGYTNYNQKFKDRATITTDKSTSTAYMELSSLRSEDTAVYYCARYYDDHYALDYWGQGTLVTVSS
# VL: QIVLTQSPATLSLSPGERATLSCSASSSVSYMNWYQQKPGKAPKRWIYDTSKLASGVPSRFSGSGSGTDYTLTISSLQPEDFATYYCQQWSSNPFTFGGGTKVEIKR
# B3: VH2val/Vκ2 humanized anti-CD3 mAb (antibody, V domains shown)
# VH: QVQLVQSGSELKKPGASVKVSCKASGYTFTRYTMHWVRQAPGKGLEWIGYINPSRGYTNYNQKFKDRATITTDKSTSTAYMELSSLRSEDTAVYYCARYYDDHYVLDYWGQGTLVTVSS
# VL: QIVLTQSPATLSLSPGERATLSCSASSSVSYMNWYQQKPGKAPKRWIYDTSKLASGVPSRFSGSGSGTDYTLTISSLQPEDFATYYCQQWSSNPFTFGGGTKVEIKR
# B4: VH2ser/Vκ2 humanized anti-CD3 mAb (antibody, V domains shown)
# VH: QVQLVQSGSELKKPGASVKVSCKASGYTFTRYTMHWVRQAPGKGLEWIGYINPSRGYTNYNQKFKDRATITTDKSTSTAYMELSSLRSEDTAVYYCARYYDDHYSLDYWGQGTLVTVSS
# VL: QIVLTQSPATLSLSPGERATLSCSASSSVSYMNWYQQKPGKAPKRWIYDTSKLASGVPSRFSGSGSGTDYTLTISSLQPEDFATYYCQQWSSNPFTFGGGTKVEIK
# notes: Human IgG4 (Ser241Pro) / κ; also called VH2ser/Vκ2 mutant; VH2scr/VK2
# Assays:
# [1] = biological target: T1, human cell-surface CD3 (Cluster of Differentiation 3) on Jurkat cells (human, UniProt P07766 23-207); experiment: direct binding by FACS, dilution series on 3×10^5 Jurkat cells
# T1 construct: whole, on cells; CD3 is a complex of several chains; also called human CD3; CD3 T-cell-surface molecule
# [2] = biological target: T1, human cell-surface CD3 (Cluster of …); experiment: competition FACS on Jurkat cells; competitor OKT3-PE at 0.02 µg/mL
Binder,EC50 [1] [µg/mL],IC50 [2] [µg/mL]
B1,0.02,
B2,,0.045
B3,,0.055
B4,,0.041
